Experimental data reported in PMC7116795.

Biological target: RAD51 (UniProt Q06609 1-339)
Test: EMSA

RAD51, sequence (Q06609 whole entry): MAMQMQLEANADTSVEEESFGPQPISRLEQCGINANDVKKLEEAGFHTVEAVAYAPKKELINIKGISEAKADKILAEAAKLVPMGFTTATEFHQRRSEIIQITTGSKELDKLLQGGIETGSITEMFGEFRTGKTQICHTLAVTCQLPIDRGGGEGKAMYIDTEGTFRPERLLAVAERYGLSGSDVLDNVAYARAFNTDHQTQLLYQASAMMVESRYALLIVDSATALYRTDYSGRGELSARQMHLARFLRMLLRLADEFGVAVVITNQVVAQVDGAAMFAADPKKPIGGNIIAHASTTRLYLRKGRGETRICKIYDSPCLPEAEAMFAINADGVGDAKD

UUAGGGUUAGGGUUAGGGUUAGGGUUAGGGUUAGGGUUAGG (ssRNA) [41mer TERRA]
binding signal: ~3 fold higher affinity than TelDNA (N2)
